The values that follow come from patent US20240269203A1 (Janssen / Centocor, published 2024).

Test [1] concerns the target human CD40 receptor, stably expressed on HEK293 (HEK-Blue) reporter cells (human) (UniProt P25942).
A further test concerns the target T1, mouse CTLA-4 (mouse, UniProt P09793 36-161).
T1 construct: also called mCTLA-4
Put plainly: ELISA on immobilized mCTLA-4; supernatant of Vero cells infected with mJP-OV-2 (FIG. 33). On the technique in general: An ELISA detects its analyte on a solid surface through an enzyme-linked reagent.

In test [1], “hCD40ag (human CD40 agonist payload; Fc-less trimer of single-chain CD40L ectodomain trimer bundles with T4 fibritin trimerization motif), purified (ligand)” showed an EC50 (read off the curve), CD40 reporter cells, OD 650 nM of 3 ng/mL.

B1: mαCTLA-4 (mouse surrogate anti-CTLA-4 antagonist payload; anti-CTLA-4 VHH fused to the heavy chain of mouse IgG2a Fc), expressed from mJP-OV-2 (Fc fusion)
chain: QVQLVESGGGLAQPGGSLRLSCAASGSTISSVAVGWYRQTPGNQREWVATSSTSSTTATYADSVKGRFTISRDNAKNTIYLQMNSLKPEDTAVYYCKTGLTNWGRGTQVTVSSEPRGPTIKPCPPCKCPAPNLLGGPSVFIFPPKIKDVLMISLSPIVTCVVVDVSEDDPDVQISWFVNNVEVHTAQTQTHREDYNSTLRVVSALPIQHQDWMSGKEFKCKVNNKDLPAPIERTISKPKGSVRAPQVYVLPPPEEEMTKKQVTLTCMVTDFMPEDIYVEWTNNGKTELNYKNTEPVLDSDGSYFMYSKLRVEKKNWVERNSYSCSVVHEGLHNHHTTKSFSRTPGK
notes: also called Mouse CTLA-4 antagonist payload; OVTSB24
As to B1, in the test with mouse CTLA-4, the binding result is recorded as “binds”.
